Test results taken from FireProtDB (doi:10.1016/j.jmb.2003.11.050).

Settings: Bacillus caldolyticus; pH 7; 25 °C; GdnHCl; Fluorescence; sodium cacodylate 100 mM; reversible: yes; whole UniProt chain shown

B1: Cold shock protein CspB wild type, P41016 (protein)
chain: MQRGKVKWFNNEKGYGFIEVEGGSDVFVHFTAIQGEGFKTLEEGQEVSFEIVQGNRGPQAANVVKL
  denaturant m value: 1.53 kcal/mol/M
  denaturant midpoint (higher = more stable): 2.36 M
  unfolding free energy: 3.63 kcal/mol
